Assay results as given in PMC6561242.

Biological target: α-synuclein 1–140 tagged with the C-terminal Venus fragment (UniProt P37840)
Experiment: split reporter

Chain of VAMP2 tagged with the N-terminal Venus fragment (natural protein) (P63027 2-116): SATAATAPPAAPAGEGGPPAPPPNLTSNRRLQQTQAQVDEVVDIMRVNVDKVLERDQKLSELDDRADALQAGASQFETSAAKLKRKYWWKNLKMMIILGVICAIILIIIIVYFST

Venus complementation fluorescence at boutons relative to α-syn 1–140: 1 | Venus complementation fluorescence relative to α-syn 1–140: 1
Substance: VAMP2 tagged with the N-terminal Venus fragment (natural protein)
